The values below are quoted from earlier work in paper PMC9254164.

In this series the target is phospho-ubiquitin (Homo sapiens) (UniProt P0CG47).

Parkin, sequence (O60260 whole entry): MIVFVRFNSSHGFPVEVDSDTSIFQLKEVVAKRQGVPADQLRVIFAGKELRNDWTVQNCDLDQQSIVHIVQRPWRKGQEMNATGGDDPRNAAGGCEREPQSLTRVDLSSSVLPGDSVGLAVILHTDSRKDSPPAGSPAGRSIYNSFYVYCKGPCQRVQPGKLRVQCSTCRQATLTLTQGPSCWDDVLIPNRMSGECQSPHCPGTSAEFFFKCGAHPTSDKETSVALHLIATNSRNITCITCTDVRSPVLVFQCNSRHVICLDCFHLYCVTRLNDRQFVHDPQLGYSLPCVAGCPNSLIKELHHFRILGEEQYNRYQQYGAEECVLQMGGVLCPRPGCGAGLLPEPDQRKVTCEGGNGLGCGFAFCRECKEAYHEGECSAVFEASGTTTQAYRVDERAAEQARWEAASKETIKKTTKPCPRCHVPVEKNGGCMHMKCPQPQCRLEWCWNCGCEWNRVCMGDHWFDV

Parkin (from UniProt O60260): the dissociation constant Kd is 20 nM.

One may read the Kd as a measure of binding affinity in units of concentration.
